Data taken from article PMC2954336, “Biophysical characterization of recombinant proteins: A key to higher structural genomics success” (Journal of Structural Biology, 2010).
Ends that are not written are not given here. fluorescein = fluorescein label on the N-terminus of the peptide (end-label); Me2 = dimethyl on Lys

Biological target: WDR5 (WD repeat domain 5) (UniProt P61964 1-334)
Test: fluorescence polarisation; 36 nM fluorescein-labeled peptide titrated with WDR5 from 30 nM to 30 uM; 100 mM potassium phosphate buffer pH 8, 0.01% Triton X-100; data fitted to a hyperbolic equation
Conditions: both partners purified

Kd: 100 ± 9 nM
Binder: fluorescein-ARTK(Me2)QTARKST [11-mer fluorescein-labeled histone H3 peptide dimethylated on lysine 4 (F-H3K4Me2)]
